Measured values published in patent US20240218023A1, “CYCLIC PEPTIDE-N-ACETYLGALACTOSAMINE (GALNAC) CONJUGATES FOR DRUG DELIVERY TO LIVER CELLS” (MICROBIO (SHANGHAI) CO., LTD., priority 2021, published 2024).
One block for each molecule: values may come before it. Square brackets hold non-standard residues; d marks the D form. Side chains are listed from the residue outwards. * marks the point of attachment. 5FAM = O=C1OC2(c3ccc(O)cc3Oc3cc(O)ccc32)c2ccc(C(=O)*)cc21; Linker2 = 6-aminohexyl amide linker

How the values were obtained:
[1] = Cytotoxicity, viability of HepG2 cells by Cell Counting Kit-8 (CCK-8); type: cell-based; details: human, HepG2, 1.5625-50 μM, read-out: survival ratio of cells
Experimental: The cytotoxicity effect of cyclic peptide-tri-GalNAc were evaluated with the viability of HepG2 cells and analyzed by Cell Counting Kit-8 (CCK-8) (Dojindo Laboratories, Japan). The assay was performed according to manufacturer's protocol. Briefly, HepG2 were seeded in 96-well plates with a density of 6×10^4 cells per well and incubated at 37° C. with 5% CO2. As cells reached 70% confluence, medium was changed to MEM with 2% FBS and serial diluted cyclic peptide-tri-GalNAc with final concentration of 50, 25, 12.5, 6.25, 3.125 and 1.5625 μM were treated. After 24 h of treatment, 10 μL of CCK-8 solution was added to each well, and incubated for 1˜4 h at 37° C. The absorbance at 450 nm was measured by microplate reader (Thermo scientific, Multiskan sky, MA, USA). The survival ratio of cells treated with ID013, ID023 and commercialized tri-GalNAC are from 97˜100%.

[2] = Stability assay in human plasma (UPLC-FLR); type: in vitro ADME; details: 90% human plasma; for stability in human plasma: within 6 h; for remaining at 72 h, 20 nM: human plasma (90%), 37° C., read-out: remaining amount after 72 h of incubation
Experimental: FAM-labeled tri-GalNAc ligands were prepared with sterile water with final concentration of 200 nM. […] At the end of incubations, each mixture was added 300 μl of methanol to quench the reaction. The quenched samples were centrifuged at 20,000×g for 5 min and the supernatant was further filtered with 0.45 μm filters (Merck Millipore) to remove debris. The filtered samples were measured by UPLC-FLR detector (Waters, MA, USA).
5-FAM-CPMB-0013 (ID013), 5-FAM-CPMB-0023 (ID023) and commercialized tri-GalNAC were incubated with 90% of human plasma for different time points. The amount of each ligand was analyzed and quantified by UPLC system.

[3] = biological target: asialoglycoprotein receptor (ASGPR) on HepG2 cells (human) (UniProt P07306); test: flow cytometry, % FAM-positive HepG2 cells after 24 h with 8 nM ligand; negative control
[4] = biological target: asialoglycoprotein receptor (ASGPR) on HepG2 cells (human) (UniProt P07306); test: flow cytometry, % FAM-positive HepG2 cells after 24 h with 40 nM ligand; negative control
[5] = biological target: asialoglycoprotein receptor (ASGPR) on HepG2 cells (human) (UniProt P07306); test: flow cytometry, % FAM-positive HepG2 cells after 24 h with 1.6 nM ligand; negative control
[6] = biological target: asialoglycoprotein receptor (ASGPR) on HepG2 cells (human) (UniProt P07306); test: flow cytometry, % FAM-positive HepG2 cells after 24 h with 200 nM ligand; negative control
[7] = biological target: T1, asialoglycoprotein receptor (ASGPR) on HepG2 cells (human, UniProt P07306 1-291; P07307 1-311); test: flow cytometry titration on HepG2 cells (% FAM-positive cells, 1.6-200 nM, 24 h)
T1 construct: whole, on cells; also called ASGPR receptor on liver cells
T1 sequence (looked up) 1: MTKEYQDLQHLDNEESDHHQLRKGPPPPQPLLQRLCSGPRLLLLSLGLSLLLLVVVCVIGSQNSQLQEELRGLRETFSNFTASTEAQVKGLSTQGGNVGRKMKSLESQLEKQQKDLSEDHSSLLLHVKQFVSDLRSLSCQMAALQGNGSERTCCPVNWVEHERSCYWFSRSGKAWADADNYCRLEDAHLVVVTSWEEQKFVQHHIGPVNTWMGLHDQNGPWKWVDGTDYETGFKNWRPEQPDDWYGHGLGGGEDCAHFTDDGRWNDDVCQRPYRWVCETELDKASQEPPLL
T1 sequence (looked up) 2: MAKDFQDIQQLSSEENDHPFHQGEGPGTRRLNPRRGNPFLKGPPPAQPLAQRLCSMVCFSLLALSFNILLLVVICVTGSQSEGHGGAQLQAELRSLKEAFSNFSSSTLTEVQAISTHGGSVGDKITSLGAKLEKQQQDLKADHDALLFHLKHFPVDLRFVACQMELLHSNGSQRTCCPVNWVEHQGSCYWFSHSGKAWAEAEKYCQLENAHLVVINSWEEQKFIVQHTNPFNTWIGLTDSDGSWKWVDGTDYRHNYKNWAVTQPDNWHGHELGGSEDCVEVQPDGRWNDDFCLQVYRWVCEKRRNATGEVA
Experimental: Cells were seeded in 24-well plates with a density of 1.5×10⁵ cells per well and incubated under 37° C., 5% CO₂. After 18 h of incubation, media were replaced to MEM with 2% FBS and FAM-labeled ligands were added with final concentrations of 1.6, 8, 40 or 200 nM. After 24 h of incubation, cells were washed twice with 1×PBS and analyzed by LSRFortessa (BD Biosciences, NJ, USA). The binding efficiency was evaluated by the proportion of FAM positive cells.
HepG2 cell was treated by 14 cyclic peptide-tri-GalNAc ligand variants with serial diluted concentration of 1.6, 8, 40 or 200 nM. Commercialized tri-GalNAc used in Givosirna was used as positive control and cyclic peptide w/o tri-GalNAc was negative control. Among 14 variants, 5-FAM-CPMB-0013 (ID013), 5-FAM-CPMB-0023 (ID023) and 5-FAM-CPMB-0035 (ID035) had relatively higher binding ability as compared to others and commercialized tri-GalNAc. Equilibrium dissociation constant (kd) for 5-FAM-CPMB-0013 (ID013), 5-FAM-CPMB-0023 (ID023), 5-FAM-CPMB-0035 (ID035) and commercialized tri-GalNAC were 7.0, 8.6, 5.7 and 18 nM, respectively.

Molecule: CC(=O)N[C@H]1[C@H](OCCCC(=O)NCCCC[C@@H]2NC(=O)CNC(=O)[C@H](CCCCNC(=O)CCCO[C@@H]3O[C@H](CO)[C@H](O)[C@H](O)[C@H]3NC(C)=O)NC(=O)[C@H](CCC(=O)NCCCCCCNC(=O)c3ccc4c(c3)C(=O)OC43c4ccc(O)cc4Oc4cc(O)ccc43)NC(=O)[C@H](CCCCNC(=O)CCCO[C@@H]3O[C@H](CO)[C@H](O)[C@H](O)[C@H]3NC(C)=O)NC(=O)CNC2=O)O[C@H](CO)[C@H](O)[C@@H]1O [5-FAM-CPMB-0013]
- viability at 24 h [1]: 97 to 100%
- stability in human plasma [2]: highly stable
- remaining at 72 h, 20 nM [2]: 92.7%

Molecule: CC(=O)N[C@H]1[C@H](OCCCC(=O)NCCCC[C@H]2NC(=O)CNC(=O)[C@@H](CCCCNC(=O)CCCO[C@@H]3O[C@H](CO)[C@H](O)[C@H](O)[C@H]3NC(C)=O)NC(=O)[C@@H](CCC(=O)NCCCCCCNC(=O)c3ccc4c(c3)C(=O)OC43c4ccc(O)cc4Oc4cc(O)ccc43)NC(=O)[C@@H](CCCCNC(=O)CCCO[C@@H]3O[C@H](CO)[C@H](O)[C@H](O)[C@H]3NC(C)=O)NC(=O)CNC2=O)O[C@H](CO)[C@H](O)[C@@H]1O [5-FAM-CPMB-0023]
- viability at 24 h [1]: 97 to 100%
- stability in human plasma [2]: highly stable
- remaining at 72 h, 20 nM [2]: 85.8%

- Efficiency (%) (proportion of FAM positive cells) [3]: 0.1%
- Efficiency (%) (proportion of FAM positive cells) [4]: 0.2%
- Efficiency (%) (proportion of FAM positive cells) [5]: 0.1%
- Efficiency (%) (proportion of FAM positive cells) [6]: 0.4%
B1: 5-FAM-CPMB-0031-Ac (negative control) (peptide)
peptide: cyclo(K[dE]([Linker2-5FAM])KGKG)
modifications: also: Lys side chains: Gal-1 with suffix -Ac per table, 'w/o tri-GalNAc' per text

- Kd [7]: 7 nM
B2: 5-FAM-CPMB-0013 (peptide)
peptide: KEKGKG
modifications: head-to-tail cyclic; each Lys side chain carries GalNAc via linker Gal-3; Glu side chain carries Linker2 (6-aminohexyl amide) with 5-FAM
notes: also called ID013
